Source: patent US20230295310A1 (ABCELLERA BIOLOGICS, published 2023)
Positions count from the first letter of the chain named.

B1: GOMP001_bsAb_024 (bispecific antibody, human IgG1, kappa, L234A L235A)
heavy 1: QGQLVESGGGVVQPGRSLRLSCEASGFTFRSYGMHWVRYPPGKGLEWVAIIWYDGGKKYYGDRVKGRFTISRDNPKNTLYLQMNSLRPEDTAVYYCMAYDYSNGFDIWGRGTMVTVSSASTKGPSVFPLAPSSKSTSGGTAALGCLVKDYFPEPVTVSWNSGALTSGVHTFPAVLQSSGLYSLSSVVTVPSSSLGTQTYICNVNHKPSNTKVDKKVEPKSCDKTHTCPPCPAPEAAGGPSVFLFPPKPKDTLMISRTPEVTCVVVDVSHEDPEVKFNWYVDGVEVHNAKTKPREEQYNSTYRVVSVLTVLHQDWLNGKEYKCKVSNKALPAPIEKTISKAKGQPRRPRVYTLPPSREEMTKNQVSLVCLVKGFYPSDIAVEWESNGQPENNYKTTPPVLDSDGSFFLYSVLTVDKSRWQQGNVFSCSVMHEALHNHYTQKSLSLSPG
light 1: DIVMTQTPLSSPVTLGQPASISCRSSQSFVHSDGSTYLSWLQRRPGDPPRLLIYKISNRFSGVPDRFSGRGAGTDFTLKISRVEAEDVGIYYCMQNTQFPYTFGQGTKLEIKRTVAAPSVFIFPPSDEQLKSGTASVVCLLNNFYPREAKVQWKVDNALQSGNSQESVTEQDSKDSTYSLSSTLTLSKADYEKHKVYACEVTHQGLSSPVTKSFNRGEC
heavy 2: QVQLVQSGAEVKKPGASVKVSCKASGYTFTSHWMHWVRYAPGQGLEWIGEFNPSNGRTNYNEKFKSKATMTVDTSTNTAYMELSSLRSEDTAVYYCASRDYDYDGRYFDYWGRGTLVTVSSASTKGPSVFPLAPSSKSTSGGTAALGCLVKDYFPEPVTVSWNSGALTSGVHTFPAVLQSSGLYSLSSVVTVPSSSLGTQTYICNVNHKPSNTKVDKKVEPKSCDKTHTCPPCPAPEAAGGPSVFLFPPKPKDTLMISRTPEVTCVVVDVSHEDPEVKFNWYVDGVEVHNAKTKPREEQYNSTYRVVSVLTVLHQDWLNGKEYKCKVSNKALPAPIEKTISKAKGQPRRPRVYTLPPSREEMTKNQVSLVCLVKGFYPSDIAVEWESNGQPENNYKTTPPVLDSDGSFFLYSVLTVDKSRWQQGNVFSCSVMHEALHNHYTQKSLSLSPG
light 2: DIQMTQSPSSLSASVGDRVTITCSASSSVTYMYWYQRKPGDAPKLLIYDTSNLASGVPSRFSGSGSGTDYTFTISSLQPEDIATYYCQQWSSHIFTFGQGTKVEIKRTVAAPSVFIFPPSDEQLKSGTASVVCLLNNFYPREAKVQWKVDNALQSGNSQESVTEQDSKDSTYSLSSTLTLSKADYEKHKVYACEVTHQGLSSPVTKSFNRGEC
B2: GOMP001_bsAb_030 (bispecific antibody, human IgG1, kappa, L234A L235A)
heavy 1: QVQLVQSGAEVKKPGASVKVSCKASGYTVTGYYMHWVRYAPGQGLEWMGWINPNSGGTNFAQRFQGRVTMTRDTSISTFYMDLNRLRSDDTAVYYCARGGAPVSYWFFDLWGRGTLVTVSSASTKGPSVFPLAPSSKSTSGGTAALGCLVKDYFPEPVTVSWNSGALTSGVHTFPAVLQSSGLYSLSSVVTVPSSSLGTQTYICNVNHKPSNTKVDKKVEPKSCDKTHTCPPCPAPEAAGGPSVFLFPPKPKDTLMISRTPEVTCVVVDVSHEDPEVKFNWYVDGVEVHNAKTKPREEQYNSTYRVVSVLTVLHQDWLNGKEYKCKVSNKALPAPIEKTISKAKGQPRRPRVYTLPPSREEMTKNQVSLVCLVKGFYPSDIAVEWESNGQPENNYKTTPPVLDSDGSFFLYSVLTVDKSRWQQGNVFSCSVMHEALHNHYTQKSLSLSPG
light 1: DIQMTQSPSSLSASVGDRVTITCRASQSISRYLNWYQRKPGDAPKVLIYNTSSLKSGVPSRFSGSGSGTDFTLTISSLQPEDFGTFYCQQSHSTPFTFGPGTKVDIKRTVAAPSVFIFPPSDEQLKSGTASVVCLLNNFYPREAKVQWKVDNALQSGNSQESVTEQDSKDSTYSLSSTLTLSKADYEKHKVYACEVTHQGLSSPVTKSFNRGEC
heavy 2: B1 heavy 2
light 2: B1 light 2
B3: GOMP001_bsAb_031 (bispecific antibody, human IgG1, kappa, L234A L235A)
heavy 1: QVQLVQSGAEVKKPGASVKVSCKASGYTFTSHWMHWVRKAPGQGLEWIGEFNPSNGRTNYNEEFKSKATMTVDTSTNTAYMELSSLRSEDTAVYYCASRDYDYDGRYFDYWGQGTLVTVSSASTKGPSVFPLAPSSKSTSGGTAALGCLVADYFPEPVTVSWNSGALTSGVHTFPAVLQSSGLYSLSSVVTVPSSSLGTQTYICNVNHKPSNTKVDEKVEPKSCDKTHTCPPCPAPEAAGGPSVFLFPPKPKDTLMISRTPEVTCVVVDVSHEDPEVKFNWYVDGVEVHNAKTKPREEQYNSTYRVVSVLTVLHQDWLNGKEYKCKVSNKALPAPIEKTISKAKGQPREPQVYTLPPSREEMTDNQVSLTCLVKGFYPSDIAVEWESNGQPENNYKTTPPVLMSDGSFFLASKLTVDKSRWQQGNVFSCSVMHEALHNHYTQKSLSLSPG
light 1: B1 light 2 with D1R, R37D, D41K, E122K, S130R
heavy 2: QGQLVESGGGVVQPGRSLRLSCAASGFTFRGFGMHWVRYAPGKGLEWVAIIYYDGKNKYYADRVKGRFTISRDNSKNTLYLQMNSLRAEDTAVYYCAKGGGYNWFDPWGRGTLVTVSSASTKGPSVFPLAPSSKSTSGGTAALGCLVKDYFPEPVTVSWNSGALTSGVHTFPAVLQSSGLYSLSSVVTVPSSSLGTQTYICNVNHKPSNTKVDKKVEPKSCDKTHTCPPCPAPEAAGGPSVFLFPPKPKDTLMISRTPEVTCVVVDVSHEDPEVKFNWYVDGVEVHNAKTKPREEQYNSTYRVVSVLTVLHQDWLNGKEYKCKVSNKALPAPIEKTISKAKGQPRRPRVYTLPPSREEMTKNQVSLVCLVKGFYPSDIAVEWESNGQPENNYKTTPPVLDSDGSFFLYSVLTVDKSRWQQGNVFSCSVMHEALHNHYTQKSLSLSPG
light 2: DIQMTQSPSSLSASVGDRVTITCRASQSISTYLNWYQRKPGDAPKLLIYSASSLQSGVPSRFSGSGSGTDFTLTISNLQPEDFAIYYCQRSYSPPFTFGPGTKLDIRRTVAAPSVFIFPPSDEQLKSGTASVVCLLNNFYPREAKVQWKVDNALQSGNSQESVTEQDSKDSTYSLSSTLTLSKADYEKHKVYACEVTHQGLSSPVTKSFNRGEC
B4: GOMP001_bsAb_037 (bispecific antibody, human IgG1, kappa, L234A L235A)
heavy 1: B3 heavy 1
light 1: B1 light 2 with D1R, R37D, D41K, E122K, S130R
heavy 2: EVQLVESGGVLVKTGGSLRLSCVASGFSFKKAWMNWVRYAPGKGLEWVGRIKRNSDGGAADYAARVKDRFTLSRDDSKNTLYLQMNSLKTEDTAVYYCTTLDSSSWYVGYYYMDVWGRGTTVTVSSASTKGPSVFPLAPSSKSTSGGTAALGCLVKDYFPEPVTVSWNSGALTSGVHTFPAVLQSSGLYSLSSVVTVPSSSLGTQTYICNVNHKPSNTKVDKKVEPKSCDKTHTCPPCPAPEAAGGPSVFLFPPKPKDTLMISRTPEVTCVVVDVSHEDPEVKFNWYVDGVEVHNAKTKPREEQYNSTYRVVSVLTVLHQDWLNGKEYKCKVSNKALPAPIEKTISKAKGQPRRPRVYTLPPSREEMTKNQVSLVCLVKGFYPSDIAVEWESNGQPENNYKTTPPVLDSDGSFFLYSVLTVDKSRWQQGNVFSCSVMHEALHNHYTQKSLSLSPG
light 2: DIHMTQSPSSVSASLGDRVTFTCRASQNINNWLAWYQRKPGDAPKLLIYTASSLQSGVPSRFSGSGSGTDFTLTISSLQPDDFATYYCQQAHSLPITFGQGTRLGIKRTVAAPSVFIFPPSDEQLKSGTASVVCLLNNFYPREAKVQWKVDNALQSGNSQESVTEQDSKDSTYSLSSTLTLSKADYEKHKVYACEVTHQGLSSPVTKSFNRGEC
B5: GOMP001_bsAb_029 (bispecific antibody, human IgG1, kappa, L234A L235A)
heavy 1: B3 heavy 1
light 1: B1 light 2 with D1R, R37D, D41K, E122K, S130R
heavy 2: B2 heavy 1
light 2: B2 light 1
B6: GOMP001_bsAb_032 (bispecific antibody, human IgG1, kappa, L234A L235A)
heavy 1: B3 heavy 2
light 1: B3 light 2
heavy 2: B1 heavy 2
light 2: B1 light 2

What follows are binders tested against human EGFR, C-terminal eGFP-tagged, on CHO-K1 cells (human, UniProt P00533 25-1210) (assay: cell-based or functional assay).

EC50 CHO-K1 EGFR Low (nM); T cell activation bioassay, luciferase [nM] | EC50 CHO-K1 EGFR Med (nM); T cell activation bioassay, luciferase [nM] | Binder
0.245 | 0.122 | B1
0.0644 | 0.00272 | B2
1.66 | 0.446 | B3
0.183 | 0.028 | B4
0.271 | 0.0226 | B5
0.122 | 0.0482 | B6
